This is an account of results in publication PMC9712106 (2022).

Sequences and labels used below:
B1: PfCSS (residues 20 to 290) (domain or fragment)
chain: GQDEKSVKNICVCDFTDKLNFLPLEKTKILCELKPQYGEDIKIIANKEYEINCMNNSKVFCPLKDTFINNTNIKLYSPKLHFEIKDITHKGKNAALYYLKIDEEASDIFFSCSIKPKQVSGLLEGEVRVNLKKHINEEYSIFNEEEDVHVCDFSKGNLDITPSAGFYLKNSRNVSCIYRVIPNKLFLIKLPKLDIVTEKLLPSIVNCLSEFSFINFTLKHVQEGDNYISFNVIFGEFKKHFNLACSLDLSDFQQEPCNLGKTANITFIFSK
modifications: N-linked glycan on Asn88 (seen in the crystal structure)

Common to all, as to experiment: BLI
Assay [1] has as its target T1, PfPTRAMP (residues 42 to 309), PMX cleaved ectodomain (P. falciparum, UniProt Q8I5M8).
Assay [2] addresses T2, PTRAMP–CSS heterodimer (disulfide-linked PfPTRAMP 42–309 and PfCSS 20–290) (P. falciparum).
T2 chain 1: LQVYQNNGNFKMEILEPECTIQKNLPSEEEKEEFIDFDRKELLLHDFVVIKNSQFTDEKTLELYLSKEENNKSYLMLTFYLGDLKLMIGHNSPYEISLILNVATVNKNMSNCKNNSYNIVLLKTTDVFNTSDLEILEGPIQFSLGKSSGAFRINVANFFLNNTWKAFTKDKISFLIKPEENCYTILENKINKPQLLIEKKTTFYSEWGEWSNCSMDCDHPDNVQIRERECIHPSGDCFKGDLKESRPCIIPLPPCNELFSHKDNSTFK
T2 chain 2: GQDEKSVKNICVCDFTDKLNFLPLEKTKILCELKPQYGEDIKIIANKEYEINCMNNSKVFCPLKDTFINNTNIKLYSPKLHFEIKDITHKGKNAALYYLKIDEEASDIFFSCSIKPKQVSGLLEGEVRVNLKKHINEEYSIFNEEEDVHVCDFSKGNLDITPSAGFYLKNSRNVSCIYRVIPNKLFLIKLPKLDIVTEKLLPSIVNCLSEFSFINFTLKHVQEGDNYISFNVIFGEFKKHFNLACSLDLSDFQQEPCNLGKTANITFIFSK

Assay [3] deals with B1.
The target of assay [4] is T1, PfPTRAMP (residues 42 to 309), PMX …. The source holds these as a separate data set.

Where two headings read alike, the source gives them in different places.

B1 came in with a Kd in assay [1] of 19000 nM.

B2: anti-PfCSS nanobody F1 (VHH)
VHH: QVQLQESGGGLVQAGGPLRLSCVASGRTFSLHLMGWFRQAPGKEREFVAAISGSGGSTYYADSVKGRFTISRDNAKNTVYLQMNSLKPEDTAVYYCAADLENYMSTMLDGYNYWGQGTQVTVSS
As to B2, the figures for the Kd in assay [2] and in assay [3] were 9.9 nM and 3.5 nM, respectively.

B3: anti-PfCSS nanobody C1 (VHH)
VHH: QVQLQESGGGLVQAGGSLRLSCAASGRSFSSYAMGWFSQAPGKEREFVAAISWNGGSTYYADSVKGRFTISRNNAKNTVYLQMNSLKPEDTAVYYCAATEPEIYISTMAEGYDYWGQGTQVTVSS
For B3, the results for the Kd in assay [2] and in assay [3] were 6.8 nM and 0.99 nM, respectively.

B4: D2 nanobody (anti-PfCSS, inhibitory) (VHH)
VHH: QVQLQESGGGLVQAGGSLRLSCAASGRTFSSYAMGWFRQAPGKEREFVAAISYSGSNTYDADSVKGRFAISRDNAKNTVYLQMNSLKPEDTAVYYCAAAGVYSGTYTDTEFDYWGQGTQVTVSS
Consider B4, for which the dissociation constant (Kd) in assay [3] amounted to 4.4 nM.

B5: anti-PfCSS nanobody C9 (VHH)
VHH: QVQLQESGGGLVQAGDSLRLSCAASGRTFSSYAMGWFRQAPGKEREFVAAIAWNGGSTYYQDSVKGRFTISRDNAKNTVYLQMNSLKPEDTAVYYCAADDSYMSTMIHEYDYWGQGTQVTVSS
On to B5, for which the Kd was 12 nM in assay [2] and 6.5 nM in assay [3].

B6: anti-PfPTRAMP nanobody H8 (VHH)
VHH: QVQLQESGGGLVQPGGSLRLSCAASGFTFSSYWMYWVRQAPGKGLEWVSAINTGGGSTAYADSVKGRFTISRDNAKNTLYLQMNSLKSDDTAVYYCVKARGSSWSDRVFDYWGQGTQVTVSS
On to B6, for which the dissociation constant Kd in assay [4] stood at 400 nM; in assay [2], 410 nM.

B7: anti-PfCSS nanobody B1 (VHH)
VHH: QVQLQESGGGLVQYGGSLRLSCAASGRTFSSYSMGWFRQAPGKEREFVAAISWTGGNTYYLGSTEGRFTISRDNAKNTVFLQMNNLKPEDTAVYYCAAKGRGSSWPTYDYRGQGTQVTVSS
Turning to B7, the dissociation constant Kd in assay [2] was 5.6 nM; in assay [3] it was 4 nM.

B8: H2 nanobody (anti-PfCSS, non-inhibitory) (VHH)
VHH: QVQLQESGGGLVQPGGSLRLSCAASGSIFSTNAMGWYRQAPGKQREQVATITSGSSTNYADSVKGRFTISRDNAKNTVYLQMNSLKPEDTAVYYCNAAGATIDLADFGSWGQGTQVTVSS
B8: the Kd in assay [3] came to 0.88 nM.

B9: anti-PfPTRAMP nanobody H10 (VHH)
VHH: QVQLQESGGGLVQPGGSLRLSCAASGFTFDNYWMYWVRQAPGKGLEWVSAINTVGSHTYYADSVKGRFTISRDNAKNTLYLQMNSLKSEDTAVYYCAKGPWGFGTSGWGEMDYWGKGTQVTVSS
Take B9: the figures for the Kd in assay [4] and in assay [2] were 530 nM and 390 nM, respectively.

B10: anti-PfCSS nanobody F7 (VHH)
VHH: QVQLQESGGGSVQVGDSLSLSCVASGRTFSTYALGWFRQAPGKEREFVAAASANGKVAPVTGSLRDRFSISRDNAKNTMYLQMNNLKPEDTAVYYCAAATGSEVFISTSPNVYDIWGQGTQVTVSS
For the molecule B10, the Kd in assay [2] was determined as 9.9 nM; in assay [3], 5 nM.

B11: anti-PfCSS nanobody D1 (VHH)
VHH: QVQLQESGGGLVQAGGSLRLSCAASGRTFSSLAMGWFRQPPGKEREFVAAISYSSGSTYYADSVKGRFTISRDNAKNTVYLQMNSLKPEDTAVYYCAVTPPDTYISTMGHEYDYWGQGTQVTVSS
Take B11: the values for the equilibrium dissociation constant (Kd) in assay [2] and in assay [3] were 9 nM and 2.6 nM, respectively.

B12: anti-PfCSS nanobody B6 (VHH)
VHH: QVQLQESGGGLVQAGGSLRLSCAASGRTFSRYAMGWFRQAPGKEREFVAAISWSGGSTTYADSVKGRFTISRDNAKNTVYLQMNSLKPEDTAVYYCAAGDFIIGNMASEYEYWGQGTQVTVSS
In the case of B12, the Kd in assay [2] was 2.5 nM; in assay [3] it was 0.66 nM.

B13: anti-PfCSS nanobody C10 (VHH)
VHH: QVQLQESGGGLVQAGGSLRLSCVASGRTFSNDAMGWFRQAPGKEREFVAAATRNGLGTGYADSVKGRFTISRDNAKNTVYLQMNSLKPEDTAVYYCAAASDAYYSNQRAAYDYWGQGTQVTVSS
As to B13, the Kd worked out at 12 nM in assay [2] and 1.5 nM in assay [3].

B14: anti-PfCSS nanobody E12 (VHH)
VHH: QVQLQESGGGLVQAGGSLRLSCVASTRTFGNYAMAWFRQAPGKEREFVTTISASGGNTGAAPSVKGRFAISRDNAKNTVYLQMNSLKPEDTAVYYCAAASAYYSNDPARYTYWGQGTQVTVSS
As to B14, the Kd in assay [2] turned out to be 16 nM; in assay [3], 12 nM.

B15: anti-PfCSS nanobody D9 (VHH)
VHH: QVQLQESGGGLVQAGGSLTLSCAASGRTFSRSAMGWFRQAPGKGREFVAAISSGDTSTYYMDSVKGRFTISRDSSKNTVYLQMNNLRPEDTAVYYCAADPKSYITTMISEYDIWGQGTQVTVSS
B15: the Kd came to 11 nM in assay [2] and 4.4 nM in assay [3].

B16: anti-PfCSS nanobody G5 (VHH)
VHH: QVQLQESGGGLVQAGGSLRLSCVASGRTFSSYGMGWFRQAPGKEREFVSAISSDAASRHYANSVKGRFTISRDNAKNTVTLQMSSLTPEDTAVYYCAAVHAYYSNYDGHYDYWGQGTQVTVSS
As to B16, the Kd is 7 nM in assay [2] and 4.9 nM in assay [3].
